Experimental data from patent publication US7867732B2, “Isolated polypeptide binding to a sugar chain, polynucleotide encoding the polypeptide and use of the polypeptide and polynucleotide” (National University of Corporation Hiroshima University, priority 2005, dated 2011).
Converted amounts (≈) assume the structure as drawn.

B1: BML-17: polypeptide (lectin) isolated from seaweed Bryopsis maxima; amino acid sequence of SEQ ID NO: 2 (protein, listed as Bryopsis maxima)
chain: VIYQDPVTSDMFAKIPMPGHRGPWYVCHSSGDWSRNEPVFGRCALDAKGMVEAYFPYGGKDIKWPSRWSAVLTTGVYWGKYNDWKQADCNGGQQVVDGGRGAVTVRMDGLSECKGWTTGKSSHNEVWFGCNGKEVGSWLSDTPASDVFPLCQEYGAAVKLVHMGRAFN
B2: ESA-2: Eucheuma serra-derived lectin (protein)
chain: GRYTVQNQWGGSSAPWNDAGLWILGSRGNQNVMAVDVNSSDGGANLNGTMTYSGEGPIGFKGARRGESNVYDVENQWGGSSAPWHAGGQFVIGSRSGQGVLAVNITSSDGGKTLTGTMTYEREGPIGFKGTQSGGDTYNVENQWGGSSAPWNKAGIWALGDRSGQAMIAMDVSSSDGGKTLEGTMQYKGEGPIGFRGKLSGANNYSVENQWGGSSAPWNAAGDWLIGDRHNQNITAVKVSSDNDGKNLDGTCTYEREGPIGFKGVATS

Legend:
[1] = test system: BML-17; assay: Hemagglutination-inhibition test with BML-17 and trypsin-treated rabbit erythrocytes; type: cell-based, Bryopsis maxima; settings: gel filtration active fractions instead of purified BML-17
[2] = test system: BML-17; assay: as above; type: cell-based, Bryopsis maxima
Method: (§1) Hemagglutinating activity was measured using a micro titer method. Twenty-five μl of serially two-fold dilutions of each purified fraction solution adjusted with saline was placed on a micro titer plate. Each diluted solution was supplemented with 25 μl of a 2% suspension of trypsin-treated rabbit erythrocytes and was gently stirred. The mixture was allowed to stand at room temperature for 1.5 hours and agglutination was observed. Agglutination was evaluated with naked eye. Agglutination of 50% or greater percentage of red blood cells was evaluated as positive. Agglutinating activity was given by agglutination titer, i.e., the protein concentration of maximum diluent showing agglutinating activity.
(§2) In this Example, trypsin-treated rabbit red blood cells (TRBC) were used as red blood cells. TRBC was prepared as follows. First, 2 ml of blood was collected from the ear of a rabbit kept in laboratory. The blood sample was washed 3 times with about 50 ml of saline, and was supplemented with 50 ml of saline to obtain a 2% rabbit blood cell suspension. The solution was supplemented with 1/10 volume of 0.5% trypsin in saline, and was allowed to stand at 37° C. for 1.5 hours. The trypsin-treated red blood cells were then washed 3 times with saline, and were supplemented with 45 ml of saline to obtain a 2% suspension of trypsin-treated rabbit erythrocytes (or blood cells) (TRBC).
Hemagglutination-inhibition test was performed according to the following procedure. First, each 25 μl of serially two-fold dilutions of sugar solution in saline was placed on a micro titer plate. The concentration of the original solutions of sugars examined was 100 mM for monosaccharides and oligosaccharides, and 2 mg/ml for glycoproteins. Each solution was mixed with 25 μl of BML-17 solution that had been adjusted to an agglutination titer of 4, and allowed to stand for 1.5 hours at room temperature after gentle stirring. Then, 25 μl of TRBC was added, and the mixture was allowed to stand for 2 hours at room temperature to observe hemagglutination inhibitory capability. The presence or absence of hemagglutination inhibitory capability was determined by naked eye. The test was positive when no hemagglutination occurred in about 100% of the red blood cells.
The hemagglutination inhibition test used D-glucose, D-galactose, D-mannose, N-acetyl-D-glucosamine, N-acetyl-D-galactosamine, D-xylose, L-fucose, fructose, lactose, and raffinose as monosaccharides and oligosaccharides. As glycoproteins, mucin (bovine submaxillary gland) and asialomucin, fetuin (type III, calf serum) and asialofetuin, transferrin (human) and asialotransferrin, α1-acid glycoprotein (human) and alialo-α1-acid glycoprotein, and yeast mannan were used.

[3] = target: T1, asialotransferrin (Homo sapiens, UniProt P02787); assay: SPR kinetics analysis of affinity between lectins and immobilized asialotransferrin; type: binding
T1 construct: purchased SIGMA
Method: (§3) Immobilization was performed according to manuals. Specifically, Taka-amylase A was immobilized using a surface thiol coupling method, and asialofetuin, bovine tyroglobulin, antibody, and BSA were immobilized using an amine coupling method. Each sample was immobilized in an amount within a range of 1000 RU to 1500 RU as adjusted by a manual injection method. Purity of the glycoprotein was confirmed by SDS-PAGE or MALDI-TOF-MS.
Affinity between each glycoprotein and each lectin was analyzed by SPR technique. Prior to analysis, preliminary analyses were made to assess analysis methods. […] Approximate KD values were calculated from a resulting sensorgram, and five or more steps of two-fold series dilutions of analyte (lectin) were prepared at target concentrations of 0.1 to 10 KD [M]. An analysis program was created using “Customized Application” according to the manual, and a subtraction function was used in which subtraction was made from flow cells that had glycoproteins immobilized thereon, from among four flow cells in the sensor chip. […] Under this analysis program, each analyte (lectin) solution was flown on the sensor chip at a flow rate of 30 μl/min for 3 minutes, and buffer was flown for 3 minutes to measure the amount of lectin that had bonded/dissociated. […]

[4] = test system: chicken egg yolk antibody (chicken IgY antibody); assay: SPR kinetics analysis of affinity between lectins and immobilized chicken egg yolk antibody; type: binding; settings: lectin as analyte; for Kd: read-out: Dissociation Constant KD
Method: as §3
Affinity between each glycoprotein and each lectin was analyzed by SPR technique. Prior to analysis, preliminary analyses were made to assess analysis methods. […] Approximate KD values were calculated from a resulting sensorgram, and five or more steps of two-fold series dilutions of analyte (lectin) were prepared at target concentrations of 0.1 to 10 KD [M]. An analysis program was created using “Customized Application” according to the manual, and a subtraction function was used in which subtraction was made from flow cells that had glycoproteins immobilized thereon, from among four flow cells in the sensor chip. […] Under this analysis program, each analyte (lectin) solution was flown on the sensor chip at a flow rate of 30 μl/min for 3 minutes, and buffer was flown for 3 minutes to measure the amount of lectin that had bonded/dissociated. Note that, an increase in RU during the time period from 10 seconds before addition of the analyte and to 10 seconds before the end of addition of analyte was given as the amount of bonding. A decrease in RU in the time period from 10 seconds after the addition of buffer to 10 seconds before the end of addition of buffer was given as the amount of dissociation.
Next, the sensor chip was washed with 0.5 M D-mannose, 10 mM glycine-HCl (pH 4.0), 50 mM HCl, and 10 mM NaOH for reproduction. Concerning the resulting sensorgram, the bonding phase and dissociation phase were fitted together with the curve to determine a bonding rate constant Ka, a dissociation rate constant kd, an affinity constant KA, and a dissociation constant KD.
Table 1 represents affinity constants of chicken egg yolk antibody and the various lectins. Table 1 represents bonding rate constant Ka (M^−1s^−1), dissociation rate constant Kd (s^−1), affinity constant KA (M^−1), and dissociation constant KD (M). The greater the affinity constant, the greater the affinity (stronger binding).

[5] = test system: chicken egg yolk antibody (chicken IgY antibody); assay: Search for lectins that bind to chicken egg yolk antibody by SPR (Biacore 2000); type: binding; settings: chicken IgY immobilized as ligand
From the text: Assessment was made as to affinity of the different types of lectins and chicken egg yolk antibody (chicken IgY antibody). Briefly, using Biacore 2000 (BIACORE) that employs the principle of surface plasmon resonance method (hereinafter, “SPR method”), chicken egg yolk antibodies (chicken IgY antibodies) were immobilized as ligands on a sensor chip, and measurements were made according to manuals using each type of lectin solution as an analyte. The SPR technique allows for measurement of specific interactions between biomolecules both quickly and quantitatively, without labeling the biomolecules. According to this technique, the ligands are immobilized on a surface of the sensor chip, which is then supplemented with a solution of substance (analyte) that acts on the ligand. Slight changes in mass caused by the binding and dissociation of the molecules are then detected as changes in SPR signals. The mass change is represented by resonance unit (RU). One thousand RU is equivalent to a change in reflection angle of 0.1° caused by resonance, and it means that the analyte has bound to the ligand at 1 ng/mm^2. The surface of the sensor chip is coated with dextran, and the ligands are immobilized primarily via carboxyl groups that have been introduced into the dextran.
Note that, as permitted, the lectins tested as analytes were selected to have different sugar binding specificity. The chicken egg yolk antibody (chicken IgY antibodies) tested as ligands were obtained by purification from egg yolk, using Eggcellent Chicken IgY Purification Kit (Pierce Chem. Co. USA).

[6] = target: T2, bovine tyroglogulin (Bos taurus, UniProt P01267); assay: Elutability of lectins bound to a bovine tyroglobulin-immobilized chip (SPR); type: binding, cattle; settings: 0.5 M D-mannose
T2 construct: purchased SIGMA
From the text: As in the case of chicken egg yolk antibody, a chip having immobilized thereon bovine tyroglogulin including the high-mannose-type sugar chain and the complex-type sugar chain was used to assess elutability of lectins that had bound to the chip. Note that, tyroglogulin was immobilized in a maximum amount (12,095 RU) on CM5 sensor chip, so as to make it easier to confirm specific binding and elution. Each solution of analyte (lectin) contained in HBS-EP (equilibriated) buffer (BIACORE) at a concentration of 100 μg/ml was flown at a flow rate of 5 μl/min until the amount of bonding reached equilibrium. After washing with HBS-EP buffer and the dissociation has reached equilibrium, 50 μl of 0.5 M D-mannose in the same buffer was injected. Based on the sensorgram, the amount of binding (RU) at the time when 50 μl (5 μg) of analyte (lectin) solution was injected was measured. Then, the amount of residual bonding (RU) of analyte (lectin) after buffer washing and elution with 50 μl of 0.5 M D-mannose was measured. The amount of residual bonding was given by percentage with respect to the maximum amount of bonding.
FIG. 3 represents the amount of residual bonding (%) of analyte (lectin) after the bonding, washing, and elution with 0.5 M D-mannose. FIG. 3 represents relative amounts of lectin that remain bonded to the chip after the dissociation with HBS-EP buffer, and relative amounts of lectin that remain after the elution with 0.5M D-mannose, when the amount of lectin binding to the bovine tyroglobulin immobilized chip exposed to the respective lectins is taken at 100%.

[7] = test system: trypsin-treated rabbit red blood cell (TRBC); assay: Temperature stability and pH stability of BML-17 by agglutinating activity; type: physicochemical; settings: 30-minute heat treatment
Method: as §1
as §2, with “The trypsin-treated red blood cells were then washed 3 times with saline, and were supplemented with 45 ml of saline to obtain a 2% suspension of trypsin-treated rabbit erythrocytes (or blood cells) (TRBC).” left out
Temperature stability and pH stability of BML-17 were evaluated, using agglutinating activity for trypsin-treated rabbit red blood cell (TRBC) as a measure.

T2 sequence (P01267 20-2769): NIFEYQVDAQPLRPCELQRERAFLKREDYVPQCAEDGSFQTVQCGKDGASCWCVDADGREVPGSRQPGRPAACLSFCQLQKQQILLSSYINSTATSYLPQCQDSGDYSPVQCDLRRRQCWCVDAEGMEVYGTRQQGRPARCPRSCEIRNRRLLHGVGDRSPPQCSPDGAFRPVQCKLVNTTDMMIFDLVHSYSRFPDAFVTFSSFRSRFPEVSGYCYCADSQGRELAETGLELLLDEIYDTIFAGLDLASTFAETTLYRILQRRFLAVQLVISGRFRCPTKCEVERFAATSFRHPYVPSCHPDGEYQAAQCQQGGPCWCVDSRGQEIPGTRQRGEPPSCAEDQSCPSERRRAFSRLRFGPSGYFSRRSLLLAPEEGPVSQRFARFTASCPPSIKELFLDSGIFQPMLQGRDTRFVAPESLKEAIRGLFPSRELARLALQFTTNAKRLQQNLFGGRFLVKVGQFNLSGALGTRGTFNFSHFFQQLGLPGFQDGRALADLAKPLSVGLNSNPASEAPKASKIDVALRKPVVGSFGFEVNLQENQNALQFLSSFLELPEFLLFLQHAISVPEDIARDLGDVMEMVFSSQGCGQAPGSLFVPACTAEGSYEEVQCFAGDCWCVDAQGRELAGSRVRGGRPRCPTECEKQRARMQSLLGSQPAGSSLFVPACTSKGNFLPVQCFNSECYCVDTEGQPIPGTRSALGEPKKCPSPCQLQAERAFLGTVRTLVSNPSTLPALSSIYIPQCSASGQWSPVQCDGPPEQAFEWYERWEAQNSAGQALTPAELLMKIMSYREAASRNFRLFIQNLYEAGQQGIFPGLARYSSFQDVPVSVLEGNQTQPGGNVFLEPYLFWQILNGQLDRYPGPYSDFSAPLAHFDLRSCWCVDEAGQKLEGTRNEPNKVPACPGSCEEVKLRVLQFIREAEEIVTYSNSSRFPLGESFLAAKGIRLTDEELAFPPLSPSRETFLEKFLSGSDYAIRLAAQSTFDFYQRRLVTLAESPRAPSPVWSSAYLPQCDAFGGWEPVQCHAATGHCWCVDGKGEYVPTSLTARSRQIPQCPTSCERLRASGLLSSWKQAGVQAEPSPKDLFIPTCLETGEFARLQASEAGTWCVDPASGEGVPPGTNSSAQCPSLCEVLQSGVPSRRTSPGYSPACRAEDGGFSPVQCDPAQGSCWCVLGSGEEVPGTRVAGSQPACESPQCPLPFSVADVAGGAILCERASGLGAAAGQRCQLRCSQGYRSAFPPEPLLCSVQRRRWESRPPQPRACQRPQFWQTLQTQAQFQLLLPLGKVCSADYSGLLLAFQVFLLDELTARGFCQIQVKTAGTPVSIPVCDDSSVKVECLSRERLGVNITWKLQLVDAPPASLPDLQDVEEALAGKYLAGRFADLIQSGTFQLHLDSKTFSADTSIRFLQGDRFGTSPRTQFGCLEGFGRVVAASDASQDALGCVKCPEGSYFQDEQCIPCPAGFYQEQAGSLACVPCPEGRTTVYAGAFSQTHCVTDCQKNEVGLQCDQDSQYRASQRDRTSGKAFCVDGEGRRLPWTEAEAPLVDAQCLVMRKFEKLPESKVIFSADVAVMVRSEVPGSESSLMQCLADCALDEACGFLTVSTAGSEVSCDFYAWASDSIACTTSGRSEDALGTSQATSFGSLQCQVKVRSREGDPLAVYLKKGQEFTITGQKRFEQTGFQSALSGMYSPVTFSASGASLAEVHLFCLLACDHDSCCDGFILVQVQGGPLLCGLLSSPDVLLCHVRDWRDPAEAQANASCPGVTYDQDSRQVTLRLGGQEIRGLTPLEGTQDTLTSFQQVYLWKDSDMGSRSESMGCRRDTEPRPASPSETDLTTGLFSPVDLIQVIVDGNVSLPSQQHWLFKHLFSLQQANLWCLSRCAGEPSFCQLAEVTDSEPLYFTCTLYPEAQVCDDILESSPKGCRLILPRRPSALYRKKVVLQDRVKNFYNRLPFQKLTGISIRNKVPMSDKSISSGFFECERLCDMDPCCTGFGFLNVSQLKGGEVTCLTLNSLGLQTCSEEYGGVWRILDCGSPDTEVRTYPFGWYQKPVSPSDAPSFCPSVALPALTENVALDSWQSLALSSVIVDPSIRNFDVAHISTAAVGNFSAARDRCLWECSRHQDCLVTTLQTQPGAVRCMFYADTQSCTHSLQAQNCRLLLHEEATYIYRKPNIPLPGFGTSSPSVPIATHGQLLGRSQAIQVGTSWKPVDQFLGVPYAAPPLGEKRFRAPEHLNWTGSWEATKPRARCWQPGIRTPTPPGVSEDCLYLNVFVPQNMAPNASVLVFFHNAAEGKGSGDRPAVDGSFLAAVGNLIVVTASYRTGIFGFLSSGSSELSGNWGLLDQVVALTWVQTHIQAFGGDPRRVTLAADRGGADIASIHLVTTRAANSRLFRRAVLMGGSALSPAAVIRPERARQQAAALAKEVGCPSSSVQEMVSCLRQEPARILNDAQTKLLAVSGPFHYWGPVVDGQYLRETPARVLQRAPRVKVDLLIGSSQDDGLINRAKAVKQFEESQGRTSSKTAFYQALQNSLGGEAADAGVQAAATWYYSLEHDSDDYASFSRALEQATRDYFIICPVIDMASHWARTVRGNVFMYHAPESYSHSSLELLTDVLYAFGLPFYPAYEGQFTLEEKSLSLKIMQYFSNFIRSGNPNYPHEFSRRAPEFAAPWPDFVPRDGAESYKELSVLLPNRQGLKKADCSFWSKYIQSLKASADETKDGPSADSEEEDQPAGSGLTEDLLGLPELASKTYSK
T1 sequence (P02787 20-698): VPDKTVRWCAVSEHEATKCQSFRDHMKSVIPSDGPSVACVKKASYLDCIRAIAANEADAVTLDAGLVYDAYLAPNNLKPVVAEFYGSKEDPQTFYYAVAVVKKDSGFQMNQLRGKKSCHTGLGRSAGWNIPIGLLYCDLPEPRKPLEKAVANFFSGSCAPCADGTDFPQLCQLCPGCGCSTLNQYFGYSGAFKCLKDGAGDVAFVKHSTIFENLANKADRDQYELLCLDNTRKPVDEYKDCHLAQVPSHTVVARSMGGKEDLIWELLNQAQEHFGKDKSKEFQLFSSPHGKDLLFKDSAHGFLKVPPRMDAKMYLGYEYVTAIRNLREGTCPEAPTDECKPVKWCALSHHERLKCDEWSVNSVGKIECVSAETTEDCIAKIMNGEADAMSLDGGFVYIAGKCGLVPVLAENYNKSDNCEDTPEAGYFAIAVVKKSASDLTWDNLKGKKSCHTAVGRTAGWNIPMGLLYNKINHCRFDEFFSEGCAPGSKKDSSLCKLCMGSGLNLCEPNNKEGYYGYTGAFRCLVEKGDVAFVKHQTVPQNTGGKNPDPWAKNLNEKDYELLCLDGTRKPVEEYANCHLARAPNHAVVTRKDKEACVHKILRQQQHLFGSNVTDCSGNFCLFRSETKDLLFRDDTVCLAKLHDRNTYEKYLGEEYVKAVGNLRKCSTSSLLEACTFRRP

Row | Molecule | Inhibition of agglutinating activity of the active fractions obtained by gel filtration [1] | Inhibition of agglutinating activity of BML-17 (in words) ([2]; TRBC) | Minimum inhibitory concentration ([2]; monosaccharides and oligosaccharides, inhibition of BML-17 (agglutination titer 4) agglutination of TRBC) [mM] | Affinity Constant KA [3] | Affinity Constant KA [4] [M⁻¹] | Binding Rate Constant ka [4] [M⁻¹ s⁻¹] | Dissociation Rate Constant kd [4] [s⁻¹] | Kd [4] [nM] | Binding to chicken egg yolk antibody (in words) [5] | Elution of bound lectin with D-mannose [6] | Temperature at which agglutinating activity attenuated [7] [°C]
1 | O=C[C@@H](O)[C@@H](O)[C@H](O)[C@H](O)CO [D-Mannose] | not inhibited at all | inhibited | 12.5 (≈ 2250 µg/mL) |  |  |  |  |  |  |  | 
2 | Con A: Canavallia ensiformis-derived lectin |  |  |  | 10^6 M^−1 | 1.87e+07 | 467 | 2.49e-05 | 53.4 | binding to chicken egg yolk antibody (chicken IgY antibodies) occurs | partially eluted with D-mannose | 
3 | B1 |  |  |  |  | 8.36e+07 | 490000 | 0.00586 | 12 | binding to chicken egg yolk antibody (chicken IgY antibodies) occurs | specifically and quantitatively eluted with D-mannose | ≥ 60
4 | B2 |  |  |  |  | 7.73e+07 | 352000 | 0.00455 |  | binding to chicken egg yolk antibody (chicken IgY antibodies) occurs | not eluted with D-mannose or any other eluents | 
